The values below come from US20260184777A1 (BEIJING SUNGEN BIOMEDICAL TECHNOLOGY, published 2026).

To fix the notation:
T1: human S100A8/A9 heterodimeric antigen, His-tagged (hS100A8/A9-His) (human, UniProt P05109 1-93; P06702 1-114)
T1 sequence 1: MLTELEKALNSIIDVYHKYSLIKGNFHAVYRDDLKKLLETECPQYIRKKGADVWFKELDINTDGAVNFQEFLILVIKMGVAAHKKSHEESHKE
T1 sequence 2: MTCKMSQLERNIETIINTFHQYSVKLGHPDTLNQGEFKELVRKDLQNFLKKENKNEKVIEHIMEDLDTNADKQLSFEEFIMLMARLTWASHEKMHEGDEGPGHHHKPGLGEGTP

B1: CM-2 (antibody, human IgG4 S228P, lambda, V domains shown)
VH: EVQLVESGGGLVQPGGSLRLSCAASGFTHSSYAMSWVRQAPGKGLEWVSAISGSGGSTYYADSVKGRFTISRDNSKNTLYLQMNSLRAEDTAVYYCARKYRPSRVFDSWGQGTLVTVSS
VL: SYELTQPPSVSVAPGQTARITCSGDALGDKYASWYQQKPGQAPVLVIYEDSKRPSGIPERFSGSNSGNTATLTISGTQAEDEADYYCQSNDADSVWVFGGGTKLTVLG
B2: CM-4 (antibody, human IgG4 S228P, lambda, V domains shown)
VH: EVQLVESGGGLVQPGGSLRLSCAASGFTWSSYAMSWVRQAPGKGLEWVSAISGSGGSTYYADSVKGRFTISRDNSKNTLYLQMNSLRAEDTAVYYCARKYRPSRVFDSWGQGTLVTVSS
VL: SYELTQPPSVSVAPGQTARITCSGDALGDKYASWYQQKPGQAPVLVIYEDSKRPSGIPERFSGSNSGNTATLTISGTQAEDEADYYCQSNDADSVWVFGGGTKLTVLG
B3: CM-11 (antibody, human IgG4 S228P, lambda, V domains shown)
VH: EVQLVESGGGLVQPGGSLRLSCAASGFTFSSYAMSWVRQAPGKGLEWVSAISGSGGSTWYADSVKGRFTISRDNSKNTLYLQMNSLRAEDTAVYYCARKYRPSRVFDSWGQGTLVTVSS
VL: SYELTQPPSVSVAPGQTARITCSGDALGDKYASWYQQKPGQAPVLVIYEDSKRPSGIPERFSGSNSGNTATLTISGTQAEDEADYYCQSNDADSVWVFGGGTKLTVLG
B4: CM-26 (antibody, human IgG4 S228P, lambda, V domains shown)
VH: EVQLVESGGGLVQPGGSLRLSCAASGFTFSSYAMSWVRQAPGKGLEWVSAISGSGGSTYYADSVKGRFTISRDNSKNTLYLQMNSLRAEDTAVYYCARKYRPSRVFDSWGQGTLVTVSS
VL: SYELTQPPSVSVAPGQTARITCSGDALGDKFASWYQQKPGQAPVLVIYEDSKRPSGIPERFSGSNSGNTATLTISGTQAEDEADYYCQSNDADSVWVFGGGTKLTVLG
B5: CM-28 (antibody, human IgG4 S228P, lambda, V domains shown)
VH: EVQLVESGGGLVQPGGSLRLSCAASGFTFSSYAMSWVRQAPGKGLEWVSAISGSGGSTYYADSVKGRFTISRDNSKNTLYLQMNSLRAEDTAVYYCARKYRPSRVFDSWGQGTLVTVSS
VL: SYELTQPPSVSVAPGQTARITCSGDALGDKYASWYQQKPGQAPVLVIYEHSKRPSGIPERFSGSNSGNTATLTISGTQAEDEADYYCQSNDADSVWVFGGGTKLTVLG
B6: CM-8 (antibody, human IgG4 S228P, lambda, V domains shown)
VH: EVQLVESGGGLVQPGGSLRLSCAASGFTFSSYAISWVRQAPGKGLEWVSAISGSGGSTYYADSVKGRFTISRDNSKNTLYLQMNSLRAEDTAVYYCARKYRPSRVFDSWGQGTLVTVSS
VL: SYELTQPPSVSVAPGQTARITCSGDALGDKYASWYQQKPGQAPVLVIYEDSKRPSGIPERFSGSNSGNTATLTISGTQAEDEADYYCQSNDADSVWVFGGGTKLTVLG
B7: CM-18 (antibody, human IgG4 S228P, lambda, V domains shown)
VH: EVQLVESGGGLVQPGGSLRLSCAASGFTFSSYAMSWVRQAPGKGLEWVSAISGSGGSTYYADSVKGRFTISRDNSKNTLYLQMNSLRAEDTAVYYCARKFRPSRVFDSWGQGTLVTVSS
VL: SYELTQPPSVSVAPGQTARITCSGDALGDKYASWYQQKPGQAPVLVIYEDSKRPSGIPERFSGSNSGNTATLTISGTQAEDEADYYCQSNDADSVWVFGGGTKLTVLG
B8: CM-21 (antibody, human IgG4 S228P, lambda, V domains shown)
VH: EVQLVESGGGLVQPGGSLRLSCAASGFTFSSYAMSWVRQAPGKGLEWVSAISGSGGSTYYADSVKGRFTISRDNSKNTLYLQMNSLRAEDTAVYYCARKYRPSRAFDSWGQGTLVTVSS
VL: SYELTQPPSVSVAPGQTARITCSGDALGDKYASWYQQKPGQAPVLVIYEDSKRPSGIPERFSGSNSGNTATLTISGTQAEDEADYYCQSNDADSVWVFGGGTKLTVLG
B9: CM-15 (antibody, human IgG4 S228P, lambda, V domains shown)
VH: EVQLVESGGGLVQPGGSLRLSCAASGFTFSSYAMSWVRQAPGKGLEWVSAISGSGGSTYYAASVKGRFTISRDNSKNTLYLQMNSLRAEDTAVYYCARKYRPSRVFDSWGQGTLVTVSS
VL: SYELTQPPSVSVAPGQTARITCSGDALGDKYASWYQQKPGQAPVLVIYEDSKRPSGIPERFSGSNSGNTATLTISGTQAEDEADYYCQSNDADSVWVFGGGTKLTVLG
B10: CM-7 (antibody, human IgG4 S228P, lambda, V domains shown)
VH: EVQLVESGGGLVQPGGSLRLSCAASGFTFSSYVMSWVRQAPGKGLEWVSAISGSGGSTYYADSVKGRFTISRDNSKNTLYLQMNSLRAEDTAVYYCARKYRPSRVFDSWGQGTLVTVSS
VL: SYELTQPPSVSVAPGQTARITCSGDALGDKYASWYQQKPGQAPVLVIYEDSKRPSGIPERFSGSNSGNTATLTISGTQAEDEADYYCQSNDADSVWVFGGGTKLTVLG
B11: CM-3 (antibody, human IgG4 S228P, lambda, V domains shown)
VH: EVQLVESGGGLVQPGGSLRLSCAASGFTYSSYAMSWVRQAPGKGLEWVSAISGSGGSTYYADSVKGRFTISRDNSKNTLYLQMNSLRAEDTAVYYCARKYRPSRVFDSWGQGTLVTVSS
VL: SYELTQPPSVSVAPGQTARITCSGDALGDKYASWYQQKPGQAPVLVIYEDSKRPSGIPERFSGSNSGNTATLTISGTQAEDEADYYCQSNDADSVWVFGGGTKLTVLG
B12: CM-23 (antibody, human IgG4 S228P, lambda, V domains shown)
VH: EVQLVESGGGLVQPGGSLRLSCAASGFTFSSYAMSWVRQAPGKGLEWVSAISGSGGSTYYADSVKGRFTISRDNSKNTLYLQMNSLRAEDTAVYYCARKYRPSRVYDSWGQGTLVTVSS
VL: SYELTQPPSVSVAPGQTARITCSGDALGDKYASWYQQKPGQAPVLVIYEDSKRPSGIPERFSGSNSGNTATLTISGTQAEDEADYYCQSNDADSVWVFGGGTKLTVLG
B13: CM-27 (antibody, human IgG4 S228P, lambda, V domains shown)
VH: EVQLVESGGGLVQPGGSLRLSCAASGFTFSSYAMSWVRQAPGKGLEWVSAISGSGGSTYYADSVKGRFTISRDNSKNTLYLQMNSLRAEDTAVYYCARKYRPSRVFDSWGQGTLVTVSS
VL: SYELTQPPSVSVAPGQTARITCSGDALGDKYASWYQQKPGQAPVLVIYQDSKRPSGIPERFSGSNSGNTATLTISGTQAEDEADYYCQSNDADSVWVFGGGTKLTVLG
B14: CM-10 (antibody, human IgG4 S228P, lambda, V domains shown)
VH: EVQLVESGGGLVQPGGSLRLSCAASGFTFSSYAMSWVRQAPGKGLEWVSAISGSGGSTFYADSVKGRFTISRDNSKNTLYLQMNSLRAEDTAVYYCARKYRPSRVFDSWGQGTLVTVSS
VL: SYELTQPPSVSVAPGQTARITCSGDALGDKYASWYQQKPGQAPVLVIYEDSKRPSGIPERFSGSNSGNTATLTISGTQAEDEADYYCQSNDADSVWVFGGGTKLTVLG
B15: CM-14 (antibody, human IgG4 S228P, lambda, V domains shown)
VH: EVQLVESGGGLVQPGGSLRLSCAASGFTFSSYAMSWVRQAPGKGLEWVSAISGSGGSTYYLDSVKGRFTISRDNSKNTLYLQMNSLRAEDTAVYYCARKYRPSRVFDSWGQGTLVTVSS
VL: SYELTQPPSVSVAPGQTARITCSGDALGDKYASWYQQKPGQAPVLVIYEDSKRPSGIPERFSGSNSGNTATLTISGTQAEDEADYYCQSNDADSVWVFGGGTKLTVLG
B16: CM-22 (antibody, human IgG4 S228P, lambda, V domains shown)
VH: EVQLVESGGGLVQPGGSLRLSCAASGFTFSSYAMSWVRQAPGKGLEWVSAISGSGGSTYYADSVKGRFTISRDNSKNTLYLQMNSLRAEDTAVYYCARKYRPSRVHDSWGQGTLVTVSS
VL: SYELTQPPSVSVAPGQTARITCSGDALGDKYASWYQQKPGQAPVLVIYEDSKRPSGIPERFSGSNSGNTATLTISGTQAEDEADYYCQSNDADSVWVFGGGTKLTVLG
B17: CM-19 (antibody, human IgG4 S228P, lambda, V domains shown)
VH: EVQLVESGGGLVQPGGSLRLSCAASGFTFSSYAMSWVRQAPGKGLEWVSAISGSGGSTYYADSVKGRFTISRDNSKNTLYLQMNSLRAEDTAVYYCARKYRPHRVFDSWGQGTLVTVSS
VL: SYELTQPPSVSVAPGQTARITCSGDALGDKYASWYQQKPGQAPVLVIYEDSKRPSGIPERFSGSNSGNTATLTISGTQAEDEADYYCQSNDADSVWVFGGGTKLTVLG
B18: CM-24 (antibody, human IgG4 S228P, lambda, V domains shown)
VH: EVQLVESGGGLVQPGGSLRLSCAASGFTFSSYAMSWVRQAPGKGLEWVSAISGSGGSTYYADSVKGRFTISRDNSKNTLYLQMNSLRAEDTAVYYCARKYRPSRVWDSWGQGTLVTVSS
VL: SYELTQPPSVSVAPGQTARITCSGDALGDKYASWYQQKPGQAPVLVIYEDSKRPSGIPERFSGSNSGNTATLTISGTQAEDEADYYCQSNDADSVWVFGGGTKLTVLG
B19: CM-16 (antibody, human IgG4 S228P, lambda, V domains shown)
VH: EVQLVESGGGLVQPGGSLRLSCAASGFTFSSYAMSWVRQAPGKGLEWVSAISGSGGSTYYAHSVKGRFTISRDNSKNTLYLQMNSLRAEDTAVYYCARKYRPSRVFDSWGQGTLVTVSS
VL: SYELTQPPSVSVAPGQTARITCSGDALGDKYASWYQQKPGQAPVLVIYEDSKRPSGIPERFSGSNSGNTATLTISGTQAEDEADYYCQSNDADSVWVFGGGTKLTVLG
B20: CM-9 (antibody, human IgG4 S228P, lambda, V domains shown)
VH: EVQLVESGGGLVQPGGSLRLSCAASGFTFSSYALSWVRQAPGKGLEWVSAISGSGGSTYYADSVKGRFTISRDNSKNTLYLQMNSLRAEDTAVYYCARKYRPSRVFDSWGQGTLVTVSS
VL: SYELTQPPSVSVAPGQTARITCSGDALGDKYASWYQQKPGQAPVLVIYEDSKRPSGIPERFSGSNSGNTATLTISGTQAEDEADYYCQSNDADSVWVFGGGTKLTVLG
B21: CM-13 (antibody, human IgG4 S228P, lambda, V domains shown)
VH: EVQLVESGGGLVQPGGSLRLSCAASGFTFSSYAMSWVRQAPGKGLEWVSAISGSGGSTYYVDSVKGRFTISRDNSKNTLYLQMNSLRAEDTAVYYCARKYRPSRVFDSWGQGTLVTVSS
VL: SYELTQPPSVSVAPGQTARITCSGDALGDKYASWYQQKPGQAPVLVIYEDSKRPSGIPERFSGSNSGNTATLTISGTQAEDEADYYCQSNDADSVWVFGGGTKLTVLG
B22: CM-6 (antibody, human IgG4 S228P, lambda, V domains shown)
VH: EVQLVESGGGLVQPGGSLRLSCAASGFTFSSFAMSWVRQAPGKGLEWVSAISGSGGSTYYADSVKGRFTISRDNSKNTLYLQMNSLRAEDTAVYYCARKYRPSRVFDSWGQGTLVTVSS
VL: SYELTQPPSVSVAPGQTARITCSGDALGDKYASWYQQKPGQAPVLVIYEDSKRPSGIPERFSGSNSGNTATLTISGTQAEDEADYYCQSNDADSVWVFGGGTKLTVLG
B23: CM-25 (antibody, human IgG4 S228P, lambda, V domains shown)
VH: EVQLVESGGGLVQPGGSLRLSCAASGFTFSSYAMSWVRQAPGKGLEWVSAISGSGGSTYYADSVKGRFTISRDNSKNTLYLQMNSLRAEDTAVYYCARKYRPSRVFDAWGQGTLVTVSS
VL: SYELTQPPSVSVAPGQTARITCSGDALGDKYASWYQQKPGQAPVLVIYEDSKRPSGIPERFSGSNSGNTATLTISGTQAEDEADYYCQSNDADSVWVFGGGTKLTVLG
B24: CM-12 (antibody, human IgG4 S228P, lambda, V domains shown)
VH: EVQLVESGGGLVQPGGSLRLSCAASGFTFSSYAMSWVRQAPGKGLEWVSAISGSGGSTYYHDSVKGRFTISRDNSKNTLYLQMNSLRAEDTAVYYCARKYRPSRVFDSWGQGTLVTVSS
VL: SYELTQPPSVSVAPGQTARITCSGDALGDKYASWYQQKPGQAPVLVIYEDSKRPSGIPERFSGSNSGNTATLTISGTQAEDEADYYCQSNDADSVWVFGGGTKLTVLG
B25: CM-17 (antibody, human IgG4 S228P, lambda, V domains shown)
VH: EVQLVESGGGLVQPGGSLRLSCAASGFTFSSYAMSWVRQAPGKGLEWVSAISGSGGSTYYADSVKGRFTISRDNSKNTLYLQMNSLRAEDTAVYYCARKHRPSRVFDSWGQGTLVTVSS
VL: SYELTQPPSVSVAPGQTARITCSGDALGDKYASWYQQKPGQAPVLVIYEDSKRPSGIPERFSGSNSGNTATLTISGTQAEDEADYYCQSNDADSVWVFGGGTKLTVLG
B26: CM-20 (antibody, human IgG4 S228P, lambda, V domains shown)
VH: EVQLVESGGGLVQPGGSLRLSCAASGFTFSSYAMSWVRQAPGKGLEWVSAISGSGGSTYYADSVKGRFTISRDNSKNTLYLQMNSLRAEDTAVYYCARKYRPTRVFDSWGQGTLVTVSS
VL: SYELTQPPSVSVAPGQTARITCSGDALGDKYASWYQQKPGQAPVLVIYEDSKRPSGIPERFSGSNSGNTATLTISGTQAEDEADYYCQSNDADSVWVFGGGTKLTVLG
B27: CM-5 (antibody, human IgG4 S228P, lambda, V domains shown)
VH: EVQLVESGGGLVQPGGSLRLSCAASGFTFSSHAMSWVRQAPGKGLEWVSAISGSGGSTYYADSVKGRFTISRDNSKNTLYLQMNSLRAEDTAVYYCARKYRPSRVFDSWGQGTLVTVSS
VL: SYELTQPPSVSVAPGQTARITCSGDALGDKYASWYQQKPGQAPVLVIYEDSKRPSGIPERFSGSNSGNTATLTISGTQAEDEADYYCQSNDADSVWVFGGGTKLTVLG
B28: CM-119 (antibody, human IgG4 S228P, lambda, V domains shown)
VH: EVQLVESGGGLVQPGGSLRLSCAASGFTFSDYAMSWVRQAPGKGLEWVSAISGSGGSTYYAASVKGRFTISRDNSKNTLYLQMNSLRAEDTAVYYCARKYRPSRVFDYWGQGTLVTVSS
VL: SYELTQPPSVSVAPGQTARITCSGDALGDKYASWYQQKPGQAPVLVIYEDAKRPSGIPERFSGSNSGNTATLTISGTQAEDEADYYCQSNDADAWWVFGGGTKLTVLG
B29: CM-118 (antibody, human IgG4 S228P, lambda, V domains shown)
VH: EVQLVESGGGLVQPGGSLRLSCAASGFTFSDYAMSWVRQAPGKGLEWVSAISGSGGSTYYAASVKGRFTISRDNSKNTLYLQMNSLRAEDTAVYYCARKYRPSRVFDHWGQGTLVTVSS
VL: SYELTQPPSVSVAPGQTARITCSGDALGDKYASWYQQKPGQAPVLVIYEDAKRPSGIPERFSGSNSGNTATLTISGTQAEDEADYYCQSNDADAWWVFGGGTKLTVLG

The first test addresses T1, human S100A8/A9 heterodimeric antigen, …. The experiment in a line: cell-based or functional assay.
For B1, the “IC50, inhibition of IL-6 release from hS100A8/A9-activated human PBMCs” value (“IC50, inhibition of IL-6 release” below) turned out to be 0.199 µg/mL.
Same read-out and setting: the result for B2 reads 0.04 µg/mL; that for B3, 0.038 µg/mL; that for B4, 0.168 µg/mL.
For the molecule B5, the “IC50, inhibition of IL-6 release” value is 1.74 µg/mL.
Still for that read-out and setting: the result for B6 reads 0.458 µg/mL.
For B7, the “IC50, inhibition of IL-6 release” value is 0.109 µg/mL.
The same measure, in the same setting: the result for B8 reads 0.01 µg/mL; that for B9, 0.477 µg/mL.
B10: the “IC50, inhibition of IL-6 release” value is 0.12 µg/mL.
For B11, the “IC50, inhibition of IL-6 release” value stood at 0.029 µg/mL.
On to B12, for which the “IC50, inhibition of IL-6 release” value is 0.024 µg/mL.
Still for that read-out and setting: the same measure for B13: 0.253 µg/mL; for B14: 0.438 µg/mL.
Take B15: the “IC50, inhibition of IL-6 release” value stood at 2.79 µg/mL.
Take B16: the “IC50, inhibition of IL-6 release” value stood at 0.162 µg/mL.
On the same count and under the same terms, the same measure for B17: 0.619 µg/mL.
The same measure, in the same setting: the same measure for B18: 0.67 µg/mL; for B19: 0.457 µg/mL.
Still for that read-out and setting: the result for B20 reads 1.56 µg/mL.
On to B21, for which the “IC50, inhibition of IL-6 release” value came out at 0.047 µg/mL.
As to B22, the “IC50, inhibition of IL-6 release” value was determined as 0.488 µg/mL.
On the same count and under the same terms, the same measure for B23: 0.471 µg/mL; for B24: 0.047 µg/mL.
On to B25, for which the “IC50, inhibition of IL-6 release” value amounted to 0.32 µg/mL.
On the same count and under the same terms, the same measure for B26: 0.43 µg/mL; for B27: 0.436 µg/mL.

For a further test the target is unchanged. The experiment in a line: cell-based or functional assay. The source holds these as a separate data set.
On to B28, for which the “Relative IC50 (IC50 relative to CM-1), IL-6 release from hS100A8/A9-activated human PBMCs” value is 1.37 relative to CM-1.
Turning to B29, the “Relative IC50 (IC50 relative to CM-1), IL-6 release from hS100A8/A9-activated human PBMCs” value is 1.63 relative to CM-1.
